From PMC4826291

Target: BG505 SOSIP.664 gp140 trimer (HIV-1 (strain BG505)) (UniProt Q2N0S6)
Experiment: negative-stain EM

CH235 Fab gave a stoichiometry N (Fabs per trimer) of 1.
